To fix the notation:
B1: h77A-1.2 (antibody, V domains shown)
VH: QIQLVQSGAEVKKPGASVKVSCKASGYTFTNYGMNWVRQAPGQGLEWMGWINTYTGEPRYADDFKGRFTFTTDTSTSTAYMELRSLRSDDTAVYFCARYDHAMDYWGQGTLVTVSS
VL: EIVLTQSPDSLAVSLGERATINCKSSQSLLNSGTRKNYLAWYQQKAGQSPKLLIYWTSTRESGVPDRFSGSGSGTDFTLTIDSLQAEDVAVYYCKQSYTLYTFGGGTKVEIK
notes: captured by anti-human Fc
B2: h77A-1.5 (antibody, V domains shown)
VH: QIQLVQSGAEVKKPGASVKVSCKASGYTFTNYGMNWVRQAPGQGLEWMGWINTYTGEPTYADDFKGRFTFTTDTSTSTAYMELRSLRSDDTAVYFCARYDHAMDYWGQGTLVTVSS
VL: EIVLTQSPDSLAVSLGERATINCKSSQSLLNSGTRKNYLAWYQQKAGQSPKLLIYWTSTRESGVPDRFSGSGSGTDFTLTIDSLQAEDVAVYYCKQSYNLYTFGGGTKVEIK
notes: captured by anti-human Fc
B3: h77A-1.4 (antibody, V domains shown)
VH: QIQLVQSGAEVKKPGASVKVSCKASGYTFTNYGMNWVRQAPGQGLEWMGWINTYTGEPIYADDFKGRFTFTTDTSTSTAYMELRSLRSDDTAVYFCARYDHAMDYWGQGTLVTVSS
VL: EIVLTQSPDSLAVSLGERATINCKSSQSLLNSGTRKNYLAWYQQKAGQSPKLLIYWTSTRESGVPDRFSGSGSGTDFTLTIDSLQAEDVAVYYCKQSYTLYTFGGGTKVEIK
notes: captured by anti-human Fc
B4: h77A-1.20 (antibody, V domains shown)
VH: QIQLVQSGDEVKKPGASVKVSCKASGYTFTNYGMNWVRQAPGQGLEWMGWINTYTGEPTYSDDFKGRFTFTTDTSTSTAYMELRSLRSDDTAVYFCARYDHAMDYWGQGTLVTVSS
VL: EIVLTQSPDSLAVSLGERATINCKSSQSLLNSGTRKNYLAWYQQKAGQSPKLLIYWTSTRESGVPDRFSGSGSGTDFTLTIDSLQAEDVAVYYCKQSYTLYTFGGGTKVEIK
notes: captured by anti-human Fc
B5: h77A-1.25 (antibody, V domains shown)
VH: QIQLVQSGAEVKKPGASVKVSCKASGYTFTNYGMNWVRQAPGQGLEWMGWINTYTGEPTYADDFKGRFTFTTDTSTSTAYMELRSLRSDDTAVYFCARYDHFMDYWGQGTLVTVSS
VL: EIVLTQSPDSLAVSLGERATINCKSSQSLLNSGTRKNYLAWYQQKAGQSPKLLIYWTSTRESGVPDRFSGSGSGTDFTLTIDSLQAEDVAIYYCKQSYTLYTFGGGTKVEIK
notes: captured by anti-human Fc
B6: h77A-1.21 (antibody, V domains shown)
VH: QIQLVQSGDEVKKPGASVKVSCKASGYTFTNYGMNWVRQAPGQGLEWMGWINTYTGEPTYADDFKGRFTFTTDTSTSTAYMELRSLRSDDTAVYFCARYDHAMDYWGQGTLVTVSS
VL: EIVLTQSPDSLAVSLGERATINCKSSQSLLNSGTRKNYLAWYQQKAGQSPKLLIYWTSTRESGVPDRFSGSGSGTDFTLSIDSLQAEDVAVYYCKQSYTLYTFGGGTKVEIK
notes: captured by anti-human Fc
B7: h77A-1.7 (antibody, V domains shown)
VH: QIQLVQSGAEVKKPGASVKVSCKASGYTFTNYGMNWVRQAPGQGLEWMGWINTYTGEPTYADDFKGRFTFTTDTSTSTAYMELRSLRSDDTAVYFCARYDHFMDYWGQGTLVTVSS
VL: EIVLTQSPDSLAVSLGERATINCKSSQSLLNSGTRKNYLAWYQQKAGQSPKLLIYWTSTRESGVPDRFSGSGSGTDFTLTIDSLQAEDVAVYYCKQSYTLYTFGGGTKVEIK
notes: captured by anti-human Fc
B8: h77A-1.13 (antibody, V domains shown)
VH: QIQLVQSGAEVKKPGASVKVSCKASGYTFTNYGMNWVRQAPGQGLEWMGWINTYTGEPTYADDFKGRFTFTTDTSTSTAYMELRSLRSDDTAVYFCARYDHPMDYWGQGTLVTVSS
VL: EIVLTQSPDSLAVSLGERATINCKSSQSLLNSGTRKNYLAWYQQKAGQSPKLLIYWTSTRESGVPDRFSGSGSGTDFTLTIDSLQAEDVAVYYCKQSYTLYTFGGGTKVEIK
notes: captured by anti-human Fc
B9: h77A-1.15 (antibody, V domains shown)
VH: QIQLVQSGAEVKKPGASVKVSCKASGYTFTNYGMNWVRQAPGQGLEWMGWINTYTGEPTYADDFKGRFTFTTDTSTSTAYMELRSLRSDDTAVYFCARYDHVMDYWGQGTLVTVSS
VL: EIVLTQSPDSLAVSLGERATINCKSSQSLLNSGTRKNYLAWYQQKAGQSPKLLIYWTSTRESGVPDRFSGSGSGTDFTLTIDSLQAEDVAVYYCKQSYTLYTFGGGTKVEIK
notes: captured by anti-human Fc
B10: h77A-1.3 (antibody, V domains shown)
VH: QIQLVQSGAEVKKPGASVKVSCKASGYTFTNYGMNWVRQAPGQGLEWMGWINTYTGEPTYADDFKGRFTFTTDTSTSTAYMELRSLRSDDTAVYFCARYDHRMDYWGQGTLVTVSS
VL: EIVLTQSPDSLAVSLGERATINCKSSQSLLNSGTRKNYLAWYQQKAGQSPKLLIYWTSTRESGVPDRFSGSGSGTDFTLTIDSLQAEDVAVYYCKQSYTLYTFGGGTKVEIK
notes: captured by anti-human Fc
B11: h77A-1.11 (antibody, V domains shown)
VH: QIQLVQSGAEVKKPGASVKVSCKASGYTFTNYGMNWVRQAPGQGLEWMGWINTYTGEPTYADDFKGRFTFTTDTSTSTAYMELRSLRSDDTAVYFCARYDHAMDYWGQGTLVTVSS
VL: EIVLTQSPDSLAVSLGERATINCKSSQSLLNSGTRKNYLAWYQQKPGQSPKLLIYWTSTRESGVPDRFSGSGSGTDFTLTIDSLQAEDVAVYYCKQSYTLYTFGGGTKVEIK
notes: captured by anti-human Fc
B12: h77A-1.24 (antibody, V domains shown)
VH: QIQLVQSGAEVKKPGASVKVSCKASGYTFTNYGMNWVRQAPGQGLEWMGWINTYTGEPTYADDFKGRFTFTTDTSTSTAYMELRSLRSDDTAVYFCARYDHRMDYWGQGTLVTVSS
VL: EIVLTQSPDSLAVSLGERATINCKSSQSLLNSGTRKNYLTWYQQKAGQSPKLLIYWTSTRESGVPDRFSGSGSGTDFTLTIDSLQAEDVAVYYCKQSYTLYTFGGGTKVEIK
notes: captured by anti-human Fc
B13: h77A-1.26 (antibody, V domains shown)
VH: QIQLVQSGAEVKKPGASVKVSCKASGYTFTNYGMNWVRQAPGQGLEWMGWINTYTGEPTYADDFKGRFTFTTDTSTRTAYMELRSLRSDDTAVYFCTRYDHAMDYWGQGTLVTVSS
VL: EIVLTQSPDSLAVSLGERATINCKSSQSLLNSGTRKNYLAWYQQKAGQSPKLLIYWTSTRESGVPDRFSGSGSGTDFTLTIDSLQAEDVAVYYCKQSYTLYTFGGGTKVEIK
notes: captured by anti-human Fc
B14: h77A-1.23 (antibody, V domains shown)
VH: QIQLVQSGAEVKKPGASVKVSCKASGYTFTNYGMNWVRQAPGQGLEWMGWINTYTGEPTYADDFKGRFTFTTDTSTSTAYMELRSLRSDDTAVYFCARYDHAMDYWGQGTLVTVSS
VL: EIVLTQSPDSLAVSLGERATINCKSSQSLLNSGTRKNYLSWYQQKAGQSPKLLIYWTSTRESGVPDRFSGSGSGTDFTLTIDSLQAEDVAVYYCKQSYSLYTFGGGTKVEIK
notes: captured by anti-human Fc
B15: h77A-1.9 (antibody, V domains shown)
VH: QIQLVQSGAEVKKPGASVKVSCKASGYTFTNYGMNWVRQAPGQGLEWMGWINTYTGEPTYADDFKGRFTFTTDTSTSTAYMELRSLRSDDTAVYFCARYDHTMDYWGQGTLVTVSS
VL: EIVLTQSPDSLAVSLGERATINCKSSQSLLNSGTRKNYLAWYQQKAGQSPKLLIYWTSTRESGVPDRFSGSGSGTDFTLTIDSLQAEDVAVYYCKQSYTLYTFGGGTKVEIK
notes: captured by anti-human Fc

T1 sequence (P0DMV8 whole entry, change not shown): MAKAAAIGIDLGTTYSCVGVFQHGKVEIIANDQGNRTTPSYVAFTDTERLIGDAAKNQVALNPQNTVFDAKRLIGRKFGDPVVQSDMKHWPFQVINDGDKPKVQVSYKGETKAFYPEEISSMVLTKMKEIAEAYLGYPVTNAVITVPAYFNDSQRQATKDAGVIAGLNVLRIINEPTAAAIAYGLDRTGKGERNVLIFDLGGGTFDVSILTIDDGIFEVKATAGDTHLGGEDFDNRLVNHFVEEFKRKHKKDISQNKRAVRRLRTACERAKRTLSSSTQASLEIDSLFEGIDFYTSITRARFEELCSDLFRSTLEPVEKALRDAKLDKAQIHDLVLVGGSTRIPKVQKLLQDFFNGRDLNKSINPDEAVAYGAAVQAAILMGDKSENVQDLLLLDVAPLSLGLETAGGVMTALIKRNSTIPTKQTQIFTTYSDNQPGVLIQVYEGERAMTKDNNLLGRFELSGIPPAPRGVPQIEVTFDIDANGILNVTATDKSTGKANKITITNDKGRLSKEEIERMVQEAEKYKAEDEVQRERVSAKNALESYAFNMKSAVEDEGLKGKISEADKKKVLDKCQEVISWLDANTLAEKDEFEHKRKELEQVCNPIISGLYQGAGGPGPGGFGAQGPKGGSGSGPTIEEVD

The assay addresses T1, HSP70 (human HSP70; the antigen of the binning, humanization and variant binding assays) (human, UniProt P0DMV8 1-641, limits assumed).
T1 construct: also called hu HSP70
Kind of assay: BLI, anti-human Fc capture, antigen 100 nM. The protocol: Binding assays were performed as follows. Antibody variants were immobilized using anti-human Fc onto the surface of a series of biosensors at […]. Antigen, at 100 nM, was passed over the surface to generate a binding response. Binding data for the antibody:antigen interactions were collected at 25° C. on the biosensors. In Table 14, X=610 represents captured antigen value (nM) at the beginning of the dissociation phase (measured at 610 seconds after the biosensor was initially contacted with antigen) and X=1495 represents captured antigen value (nM) at the end of the dissociation phase (measured at 1495 seconds after the biosensor was initially contacted with antigen). In Table 14, antibodies with an X=610 value greater than 0.2 and a % dissociation less than 10% are shown in bold.
(In general: In BLI a coated tip is dipped into the sample, and binding shifts an interference pattern.)
On to B1, for which the “% Diss” value is -1.81%.
As for B2, the “% Diss” value is 25.3%.
In the case of B3 it was 31.8%.
On to B4, for which the “% Diss” value turned out to be 12.1%.
Consider B5, for which the “% Diss” value is 23.2%.
For B6, the “% Diss” value stood at 10%.
As for B7, the “% Diss” value came out at 30.2%.
Take B8: the “% Diss” value was 13.4%.
For the molecule B9, the “% Diss” value was 33%.
For the molecule B10, the “% Diss” value was determined as 28.7%.
B11: the “% Diss” value came out at 10.7%.
For B12, the “% Diss” value came out at 33.6%.
For B13, the “% Diss” value is 11.8%.
With B14, the “% Diss” value came out at 24%.
Take B15: the “% Diss” value came out at 18.3%.

These data come from patent US20250084155A1 (University of Texas, published 2025).
